In article PMC7081424 (ACS Omega, 2020):
Square brackets hold non-standard residues; d marks the D form. Primed or numbered codes have the meaning given here. FITC′ = fluorescein isothiocyanate; pS = N[C@@H](COP(=O)(O)O)C(=O)O; βAla = NCCC(=O)O

T1: W59F and W228F double mutation of 14-3-3ζ (human, UniProt P63104 1-245, W59F | W228F)
T1 sequence (looked up): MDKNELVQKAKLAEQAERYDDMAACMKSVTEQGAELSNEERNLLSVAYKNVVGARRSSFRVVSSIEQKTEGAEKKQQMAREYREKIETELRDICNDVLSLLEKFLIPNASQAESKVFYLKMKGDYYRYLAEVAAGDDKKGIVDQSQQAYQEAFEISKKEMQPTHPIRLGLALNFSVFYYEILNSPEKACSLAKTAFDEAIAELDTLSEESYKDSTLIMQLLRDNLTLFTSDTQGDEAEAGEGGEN

B1: FITC-labeled IκBαpS63 peptide (phosphorylated 14-3-3 binding motif of IκBα) (peptide, UniProt P25963 57-69, looked up)
peptide: {FITC′-βAla}-QEVPRG[pS]EPWKQQ-NH2
B2: unlabeled (N-terminally acetylated) IκBαpS63 peptide (peptide, UniProt P25963 57-69, looked up)
peptide: Ac-QEVPRG[pS]EPWKQQ-NH2
B3: 14-3-3σ with truncated C-terminus ΔC232-248 (domain or fragment, human, UniProt P31947 1-231, looked up)
chain: MERASLIQKAKLAEQAERYEDMAAFMKGAVEKGEELSCEERNLLSVAYKNVVGGQRAAWRVLSSIEQKSNEEGSEEKGPEVREYREKVETELQGVCDTVLGLLDSHLIKEAGDAESRVFYLKMKGDYYRYLAEVATGDDKKRIIDSARSAYQEAMDISKKEMPPTNPIRLGLALNFSVFHYEIANSPEEAISLAKTTFDEAMADLHTLSEDSYKDSTLIMQLLRDNLTLWT

Tests used:
[1] = molecular target: FITC-labeled IκBαpS63 peptide (phosphorylated 14-3-3 binding motif of IκBα) (human) (UniProt P25963); test: fluorescence polarisation
[2] = molecular target: T1, W59F and W228F double mutation of …; test: fluorescence polarisation
[3] = molecular target: B3; test: crystal structure
[4] = molecular target: the molecule itself; test: crystal structure

“14-3-3ζ (from UniProt P63104 1-245) (natural protein)” was tested, and the Kd [1] was 380 µM.

B1 was tested, and the Kd [2] was about 415 µM.

B2: binds [3].

B3: binds [4].
